Measured values: patent publication US12098378B2, “Anti-fungal polypeptides” (priority 2020, dated 2024)
Numbering of substitutions follows the chain as printed. Names may count otherwise.

Columns and labels:
Botrytis cinerea R16 [1] = details: several test strains, including Botrytis cinerea R16; WO2014/177595 A1 and WO2014/191146 A1; cited from earlier work
Fraction 3 = assay: ELISA with biotinylated liposomes on streptavidin-coated plates; format: binding, Botrytis cinerea; details: screen for additional Fraction 3 binders (FIG. 13)
Source text: Dissociation constants (Kd) can be estimated based on the results of an ELISA. In equilibrium analysis as in ELISA, the Kd can be calculated from the equilibrium binding response. Where the ELISA plate wells are coated with a target antigen, and where the target antigen may be a lipid-containing fraction of the membrane of Botrytis cinerea, such a method may further use a range of concentrations of a polypeptide binding the target antigen. Where the ELISA generally provides a quantitative adsorption measure for each polypeptide concentration representing binding of the polypeptide to the target antigen, the range of concentration of a polypeptide may for example be 0.5, 1, 2.5, 5, and 10 μM. The most suitable range of concentrations used can vary depending on the affinity of the polypeptide to the target antigen. The corresponding absorption values as determined by ELISA may result in a sigmoid curve when absorption values are plotted against the logarithmic conversion of the polypeptide concentrations. This sigmoid curve may serve to define an IC50 value. Where this IC50 is the concentration of polypeptide where the corresponding absorption value is 50% of the saturated value as estimated by the maximum of the sigmoidal function, the Kd can be estimated by 1/Ka were the association constant (Ka) can be estimated as 1/IC50. Thus Kd corresponds to the analyte concentration that reaches equilibrium at 50% binding saturation. Commonly computation methods can be used for these calculations. For example, this can be done using GraphPad. In some embodiments, the Kd may be determined by surface plasmon resonance (SPR).
The above-mentioned method for the formation of liposomes (Example 12) was modified with the addition of a biotinylated lipid (12:0 Biotinyl M G (1-(12-N-biotin)aminododecanoyl-rac-glycerol), Sigma Aldrich), to allow for use of these liposomes for ELISA using streptavidin-coated plates (Pierce™ Streptavidin Coated High Capacity Plates, Clear, 96-Well, blocked with SuperBlock™ Buffer, Thermo Fisher Scientific).
To estimate the dissociation constant Kd value of 10G11 binding to Fraction 3, the ELISA set-up with biotinylated liposomes from Fraction 3 as described in Example 13 was used. 10G11 polypeptide was added in the following concentrations: 0.5, 1, 2.5, 5, and 10 μM, prepared by a serial dilution in phosphate buffer. […] This plot was used to estimate the Kd dissociation constant using GraphPad. Where non-linear regression fitting was used.

Botrytis cinerea R16 [2] = assay: In vitro antifungal assay, IncuCyte Zoom monitoring of fungal growth from spore suspension; format: cell-based
Description: (§1) Two-fold dilutions of purified VHH 10G11Q were prepared in 96-well microtiter plates. To 20 μl of these dilutions and to 20 μl of water as a control, 80 μl of fungal spore suspension (1 E+05 spores/ml in half strength potato dextrose broth (PDB)) were added, starting with a final VHH 10G11Q concentration of 10 μM. The test plates were incubated for 36 h at 25° C. using the IncuCyte Zoom live cell imaging system. All tests were performed in at least 2 replicates.
as §1, with “VHH 10G11Q and 41D01 were prepared” for “VHH 10G11Q were prepared”, “concentration of 40 μM. The” for “concentration of 10 μM. The”, “incubated for 48 h at” for “incubated for 36 h at”
Microplate graphs were generated using the time plot feature in the graph/export menu of the IncuCyte® Base Analysis Software. Raw data for confluence of treated samples at mid log growth were exported to GraphPad Prism 8 and plotted as a semi logarithmic function of the standard concentrations. IC50 values are extrapolated after fitting the data with a four-parameter logistic regression curve. Pathogen sensitivity is measured based on the IC50, which refers to the concentration (μM) that inhibits 50% of spore germination and/or mycelial growth.

[3] = tested on: Colletotrichum orbiculare; assay: Control of anthracnose on squash in glasshouse; format: in vivo; details: 175, 350, 700 g ai/ha, 4 applications; until 2 weeks after the last application; vs non-treated inoculated control (FIG. 18)
Description: Four replicates of pot-grown squash plants (2 plants/pot) were sprayed with 125 ml aqueous suspension, containing a concentration of active ingredient as described in Table 2. Four applications were done spaced 6 or 7 days apart. Plants were inoculated once with Colletotrichum orbiculare two days after the first application (application A) of active ingredient. The efficacy of 10G11Q was compared to that of a non-treated control and the chemical reference Bravo WS (Chlorothalonil).
Disease severity is recorded as percent severity on a scale of 0-100%. Recording started when first symptoms appeared followed by regular assessment till 2 weeks after the fourth application (application D) of the active ingredient.

Botrytis cinerea R16 [4] = assay: Prolonged incubation antifungal assay followed over 14 days; format: cell-based; details: followed over a period of 14 days (FIG. 9)
Description: as §1, with “The test plates were incubated for 36 h at 25° C. using the IncuCyte Zoom live cell imaging system.” left out

B1: 41D01: anti-glucosylceramide binding VHH described in WO2014/177595 A1 and WO2014/191146 A1 (protein)
VHH: QVQLQESGGGLVQAGGSLRLSCAASGRTFSRYGMGWFRQLPGKQRELVTSITRGGTTTYADSVKGRFTISRDNAKNTVYLQMNSLKPEDTAVYYCNARSIWRDYWGQGTQVTVSS
modifications: left off: small tags and cut ends
antifungal activity among anti-glucosylceramide binding VHHs (Botrytis cinerea R16 [1]): most prominent antifungal activity

B2: 12C03Q: VHH polypeptide, SEQ ID NO: 5 (protein)
VHH: QVQLQESGGGLVQAGDSLRLSCAASISDRAFSRHVMGWFRQPPGKEREFVAAIGWTGRRTYYADSVKGRFTISRDNAMNTVYLQMNSLKPEDTAVYYCAASHFYSVSFEINDYDYWGQGTQVTVSS
binding to Fraction 3 by ELISA (Fraction 3): Fraction 3 binding

B3: 10E11Q: VHH polypeptide, SEQ ID NO: 3 (protein)
VHH: QVQLQESGGGLVQAGGSLRLSCAASGTIFRPTAMGWYRQAPGKERELVATITTGGSTKYADSVKGRFTISRGNAKNTVYLQMSSLKPEDTAVYYCNAQWGVRTRDYWGQGTQVTVSS
binding to Fraction 3 by ELISA (Fraction 3): Fraction 3 binding

B4: 10G11Q: VHH polypeptide, SEQ ID NO: 1, begins with a Q residue (protein)
VHH: QVQLVESGGGLVQAGGSLRLSCAASRSIFSINAMDWYRQAPGKQREWVAGITRGGTTKYADSVKGRFTISRDNAKKKVYLQMNSLKPEDTAVYYCNVLRGEQPWTRDYWGQGTQVTVSS
% fungal growth (total green object area) in function of VHH concentration (Botrytis cinerea R16 [2]; two-fold dilutions from 10 μM, 36 h at 25° C. (FIG. 1)): clear dose-dependent growth inhibition pattern | growth inhibition compared to VHH 41D01 (Botrytis cinerea R16 [2]; two-fold dilutions from 40 μM, 48 h at 25° C. (FIG. 2)): more prominent growth inhibition pattern | percent severity of anthracnose on squash [3]: clear and dose-related growth inhibition pattern

B5: Mutant 7: 10G11 charge variant: W100aH and T100bH substitutions in CDR3 (SEQ ID NO: 13) (protein)
VHH: B4 VHH with Q1D, W104H, T105H
antifungal activity of charge variants relative to 10G11 (Botrytis cinerea R16 [2]; assay as in Example 5 (FIG. 6)): on par antifungal activity with 10G11

B6: Mutant 8: 10G11 charge variant: S27H, I28H, S30H in CDR1 and W100aH, T100bH in CDR3 (SEQ ID NO: 14) (protein)
VHH: B4 VHH with Q1D, S27H, I28H, S30H, W104H, T105H
antifungal activity of charge variants relative to 10G11 (Botrytis cinerea R16 [2]; assay as in Example 5 (FIG. 6)): significant increase in antifungal activity

B7: Mutant 6: 10G11 charge variant: S27H, I28H and S30H substitutions in CDR1 (SEQ ID NO: 12) (protein)
VHH: B4 VHH with Q1D, S27H, I28H, S30H
antifungal activity of charge variants relative to 10G11 (Botrytis cinerea R16 [2]; assay as in Example 5 (FIG. 6)): on par antifungal activity with 10G11

B8: Mutant 9: 10G11 charge variant: S27K, I28K and S30K substitutions in CDR1 (SEQ ID NO: 15) (protein)
VHH: B4 VHH with Q1D, S27K, I28K, S30K
antifungal activity of charge variants relative to 10G11 (Botrytis cinerea R16 [2]; assay as in Example 5 (FIG. 6)): significant increase in antifungal activity | effect on preventing spore outgrowth (Botrytis cinerea R16 [4]): sustained effect on preventing spore outgrowth

B9: Mutant 11: 10G11 charge variant: S27K, I28K, S30K in CDR1 and W100aK, T100bK in CDR3 (SEQ ID NO: 17) (protein)
VHH: B4 VHH with Q1D, S27K, I28K, S30K, W104K, T105K
antifungal activity of charge variants relative to 10G11 (Botrytis cinerea R16 [2]; assay as in Example 5 (FIG. 6)): significant increase in antifungal activity | increase in anti-fungal activity over 10G11 (Botrytis cinerea R16 [2]; assay as in Example 5 (FIG. 6)): up to 5 fold | effect on preventing spore outgrowth (Botrytis cinerea R16 [4]): sustained effect on preventing spore outgrowth

B10: Mutant 10: 10G11 charge variant: W100aK and T100bK substitutions in CDR3 (SEQ ID NO: 16) (protein)
VHH: B4 VHH with Q1D, W104K, T105K
antifungal activity of charge variants relative to 10G11 (Botrytis cinerea R16 [2]; assay as in Example 5 (FIG. 6)): significant increase in antifungal activity

B11: 10G11Q-His: 10G11Q polypeptide with a C-terminal addition of a 6× His-Tag (SEQ ID NO: 148) (protein)
VHH: QVQLQESGGGLVQAGGSLRLSCAASRSIFSINAMDWYRQAPGKQREWVAGITRGGTTKYADSVKGRFTISRDNAKKKVYLQMNSLKPEDTAVYYCNVLRGEQPWTRDYWGQGTQVTVSSAAAHHHHHH
modifications: C-terminal 6xHis tag
antifungal activity of his-tagged variant relative to 10G11Q (Botrytis cinerea R16 [2]; assay as in Example 5 (FIG. 4)): significantly improved anti-fungal activity
